The target in test [1] is T1, recombinant CD3 proteins (UniProt P07766 23-126).
T1 construct: elsewhere it uses human CD3 E/D and E/G heterodimers
Kind of test: Octet BLI, recombinant CD3; Full R^2 0.557*.

In test [2] the target is T1, recombinant CD3 proteins. The experiment in a line: Octet BLI, recombinant CD3; Full R^2 0.951. (In general: In BLI a coated tip is dipped into the sample, and binding shifts an interference pattern.)

T1 sequence (P07766 23-126): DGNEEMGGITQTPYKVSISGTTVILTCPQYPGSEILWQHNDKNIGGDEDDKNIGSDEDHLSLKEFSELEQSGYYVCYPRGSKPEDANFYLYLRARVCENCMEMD

B1: CD3 × CD33-BspAb122 (bispecific antibody)
chain 1: QTVVTQEPSFSVSPGGTVTLTCGLSSGSVSTSYYPSWYQQTPGQAPRTLIYSTNTRSSGVPDRFSGSILGNKAALTITGAQADDESDYYCVLYMGSGIWVFGCGTKLTVLGGGGSGGGGSGGGGSGGGGSEVQLVESGGGLVKPGGSLRLSCAASGFTVSNYSMNWVRQAPGKCLEWVSSISRSSSYIYYADSVKGRFTISRDNAKNSLFLQMNSLRAEDTAVYYCARERWELLYFDYWGQGTLVTVSSDKTHTCPPCPAPEFEGGPSVFLFPPKPKDTLMISRTPEVTCVVVDVSHEDPEVKFNWYVDGVEVHNAKTKPREEQYNSTYRVVSVLTVLHQDWLNGKEYKCKVSNKALPASIEKTISKAKGQPREPQVYTLPPCREEMTKNQVSLWCLVKGFYPSDIAVEWESNGQPENNYKTTPPVLDSDGSFFLYSKLTVDKSRWQQGNVFSCSVMHEALHNHYTQKSLSLSPGK
chain 2: EVQLVQSGAEVKKPGSSVKVSCKASGYTITDSNIHWVRQAPGQSLEWIGYIYPYNGGTDYNQKFKNRATLTVDNPTNTAYMELSSLRSEDTAFYYCVNGNPWLAYWGQGTLVTVSSASTKGPSVFPLAPSSKSTSGGTAALGCLVKDYFPEPVTVSWNSGALTSGVHTFPAVLQSSGLYSLSSVVTVPSSSLGTQTYICNVNHKPSNTKVDKRVEPKSCDKTHTCPPCPAPEFEGGPSVFLFPPKPKDTLMISRTPEVTCVVVDVSHEDPEVKFNWYVDGVEVHNAKTKPREEQYNSTYRVVSVLTVLHQDWLNGKEYKCKVSNKALPASIEKTISKAKGQPREPQVCTLPPSREEMTKNQVSLSCAVKGFYPSDIAVEWESNGQPENNYKTTPPVLDSDGSFFLVSKLTVDKSRWQQGNVFSCSVMHEALHNRFTQKSLSLSPGK
chain 3: DIQLTQSPSTLSASVGDRVTITCRASESLDNYGIRFLTWFQQKPGKAPKLLMYAASNQGSGVPSRFSGSGSGTEFTLTISSLQPDDFATYYCQQTKEVPWSFGQGTKVEVKRTVAAPSVFIFPPSDEQLKSGTASVVCLLNNFYPREAKVQWKVDNALQSGNSQESVTEQDSKDSTYSLSSTLTLSKADYEKHKVYACEVTHQGLSSPVTKSFNRGEC
Take B1: in the test with recombinant CD3 proteins [1], the Kd was less than 0.001 nM, the koff was less than 1e-07 s⁻¹ and the kon worked out at 15400 M⁻¹ s⁻¹.

B2: CD3 × CD33-BspAb123 (bispecific antibody)
chain 1: QTVVTQEPSFSVSPGGTVTLTCGLNSGSVSTSYYPSWYQQTPGQTPRTLIYSTNTRSSGVPDRFSGSILGNKAALTITGAQADDESDYYCVLYMGSGIWVFGCGTKLTVLGGGGSGGGGSGGGGSGGGGSQVQLVQSGAEVKKPGASLKVSCKASGYTFTSYYMHWVRQAPGQCLEWMGIINPSNGNTISAQKFQGRVTMTRDTSTSTVYMEMSSLRSEDTAVYYCVRSWGYYVMDVWGQGTTVTVSSDKTHTCPPCPAPEFEGGPSVFLFPPKPKDTLMISRTPEVTCVVVDVSHEDPEVKFNWYVDGVEVHNAKTKPREEQYNSTYRVVSVLTVLHQDWLNGKEYKCKVSNKALPASIEKTISKAKGQPREPQVYTLPPCREEMTKNQVSLWCLVKGFYPSDIAVEWESNGQPENNYKTTPPVLDSDGSFFLYSKLTVDKSRWQQGNVFSCSVMHEALHNHYTQKSLSLSPGK
chain 2: EVQLVQSGAEVKKPGSSVKVSCKASGYTITDSNIHWVRQAPGQSLEWIGYIYPYNGGTDYNQKFKNRATLTVDNPTNTAYMELSSLRSEDTAFYYCVNGNPWLAYWGQGTLVTVSSASTKGPSVFPLAPSSKSTSGGTAALGCLVKDYFPEPVTVSWNSGALTSGVHTFPAVLQSSGLYSLSSVVTVPSSSLGTQTYICNVNHKPSNTKVDKRVEPKSCDKTHTCPPCPAPEFEGGPSVFLFPPKPKDTLMISRTPEVTCVVVDVSHEDPEVKFNWYVDGVEVHNAKTKPREEQYNSTYRVVSVLTVLHQDWLNGKEYKCKVSNKALPASIEKTISKAKGQPREPQVCTLPPSREEMTKNQVSLSCAVKGFYPSDIAVEWESNGQPENNYKTTPPVLDSDGSFFLVSKLTVDKSRWQQGNVFSCSVMHEALHNRFTQKSLSLSPGK
chain 3: DIQLTQSPSTLSASVGDRVTITCRASESLDNYGIRFLTWFQQKPGKAPKLLMYAASNQGSGVPSRFSGSGSGTEFTLTISSLQPDDFATYYCQQTKEVPWSFGQGTKVEVKRTVAAPSVFIFPPSDEQLKSGTASVVCLLNNFYPREAKVQWKVDNALQSGNSQESVTEQDSKDSTYSLSSTLTLSKADYEKHKVYACEVTHQGLSSPVTKSFNRGEC
With B2, in the test with recombinant CD3 proteins [2], the Kd was 12 nM, the koff worked out at 0.00103 s⁻¹ and the kon was 85500 M⁻¹ s⁻¹.

In general, Kd refers to the free concentration of one partner at which half of the binding sites on the other are occupied at equilibrium, for simple one-to-one binding. As a reminder, the koff is the rate constant with which the complex falls apart. For orientation: kon means the second-order rate constant of association.
